The results in this text go back to paper doi:10.1101/2021.11.20.466133.

What is called stoichiometry N is the number of molecules, sites or subunits per partner or assembly.

Assay [1] deals with Mycobacterium smegmatis DNA integrity scanning protein (MsDisA), c-di-AMP synthase (Mycobacterium smegmatis mc2155). In words: SEC-MALS.
Assay [2] shares this target. Briefly: negative-stain TEM.
For assay [3] the target is unchanged. Briefly: cryo-EM structure.
Assay [4] deals with MsDisA_(1-316) (domains 1 and 2) (Mycobacterium smegmatis mc2155). Briefly: SEC-MALS.
Assay [5] concerns the target MsDisA_(1-158) (only N-terminal domain-1) (Mycobacterium smegmatis mc2155). In words: SEC-MALS. Background: SEC sorts molecules by how far they enter the pores of the column.
In assay [6] the target is MsDisA_(132-372) (domains 2 and 3) (Mycobacterium smegmatis mc2155). In words: SEC-MALS.

Consider “Mycobacterium smegmatis DNA integrity scanning protein (MsDisA), c-di-AMP synthase (enzyme)”, for which the stoichiometry N in assay [1], in assay [2] and in assay [3] was 8 throughout.
In turn, “MsDisA_(1-316) (domains 1 and 2) (domain or fragment)” had a stoichiometry N in assay [4] of 8.
Take “MsDisA_(1-158) (only N-terminal domain-1) (domain or fragment)”: the stoichiometry N in assay [5] was determined as 8.
With “MsDisA_(132-372) (domains 2 and 3) (domain or fragment)”, the stoichiometry N in assay [6] worked out at 2.
